# T1: Epstein-Barr virus BHRF1 a.a. 1-161 with C-terminal avi-6his tag (Epstein-Barr virus)
# T1 construct: also called EBV BHRF1; BHRF1-biotin
# T1 chain: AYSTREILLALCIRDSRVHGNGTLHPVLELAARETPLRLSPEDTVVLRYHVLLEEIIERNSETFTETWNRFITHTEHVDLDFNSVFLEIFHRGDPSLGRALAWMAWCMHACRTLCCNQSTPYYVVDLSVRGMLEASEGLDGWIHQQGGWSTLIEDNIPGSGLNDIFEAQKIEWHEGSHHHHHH
# T2: human Bfl-1 a.a. 1-153 (C4S) with C-terminal avi-6his tag (human)
# T2 construct: also called A1/Bfl-1
# T2 chain: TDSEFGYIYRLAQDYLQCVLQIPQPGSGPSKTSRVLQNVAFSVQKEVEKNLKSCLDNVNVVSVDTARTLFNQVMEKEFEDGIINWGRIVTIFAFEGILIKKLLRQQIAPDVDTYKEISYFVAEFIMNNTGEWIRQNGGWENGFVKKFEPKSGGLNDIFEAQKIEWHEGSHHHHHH
# T3: human Bcl-w a.a. 1-182 with C-terminal avi-6his tag (human, UniProt Q92843 1-182)
# T3 construct: range 1-182; also called BCL2L2
# T3 sequence: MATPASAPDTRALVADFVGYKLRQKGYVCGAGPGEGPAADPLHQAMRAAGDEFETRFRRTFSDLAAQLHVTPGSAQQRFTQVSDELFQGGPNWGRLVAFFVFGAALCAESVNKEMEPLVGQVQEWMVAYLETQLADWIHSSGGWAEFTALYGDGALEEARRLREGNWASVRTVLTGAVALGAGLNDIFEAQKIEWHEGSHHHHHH
# T4: human Bcl-B a.a. 11-175 with C-terminal avi-6his tag (human)
# T4 construct: also called BCL2L10
# T4 chain: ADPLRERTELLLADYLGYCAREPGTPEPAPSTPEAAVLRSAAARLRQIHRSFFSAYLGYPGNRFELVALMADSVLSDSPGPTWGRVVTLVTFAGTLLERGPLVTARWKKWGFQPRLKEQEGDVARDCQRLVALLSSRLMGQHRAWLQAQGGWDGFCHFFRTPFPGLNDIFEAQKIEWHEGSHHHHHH
# T5: human Mcl-1 a.a. 172-327 with C-terminal avi-6his tag (human)
# T5 chain: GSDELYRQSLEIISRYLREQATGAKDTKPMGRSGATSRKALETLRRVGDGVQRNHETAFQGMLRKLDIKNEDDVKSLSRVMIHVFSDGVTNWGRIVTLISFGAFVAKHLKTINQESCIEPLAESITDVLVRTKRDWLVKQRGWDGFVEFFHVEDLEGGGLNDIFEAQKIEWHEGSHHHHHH
# Tests used:
# [1] = molecular target: T1, Epstein-Barr virus BHRF1 a.a. 1-161 …; experiment: effect of the mutation on specificity (KD(BHRF1)/KD(Mcl-1) ratio): change in binding energy for BHRF1 minus that for Mcl-1, relative to BbpD04; assay not named on the sheet
# [2] = molecular target: T2, human Bfl-1 a.a. 1-153 (C4S) with …; experiment: BLI, biotinylated target on streptavidin sensor, range of analyte concentrations
# [3] = molecular target: T6, human Bcl-XL a.a. 1-205 with C-terminal avi-6his tag (human, UniProt Q07817 2-206); experiment: as above
# T6 construct: also called BCL2L1
# Target sequence in this assay (Q07817 other isoform, or with tags, fused parts or gaps limits assumed): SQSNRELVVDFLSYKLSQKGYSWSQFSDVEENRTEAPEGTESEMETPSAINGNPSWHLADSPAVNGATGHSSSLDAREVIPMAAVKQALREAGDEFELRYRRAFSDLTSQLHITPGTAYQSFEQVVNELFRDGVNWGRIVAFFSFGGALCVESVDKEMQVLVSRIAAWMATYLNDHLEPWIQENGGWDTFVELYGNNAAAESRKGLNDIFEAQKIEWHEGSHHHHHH
# [4] = molecular target: T3, human Bcl-w a.a. 1-182 with C-terminal …; experiment: as above
# [5] = molecular target: T4, human Bcl-B a.a. 11-175 with C-terminal …; experiment: as above
# [6] = molecular target: T7, human Bcl-2 a.a. 1-207 with C-terminal avi-6his tag (human, UniProt P10415 2-207); experiment: as above
# Target sequence in this assay (P10415 other isoform, or with tags, fused parts or gaps limits assumed): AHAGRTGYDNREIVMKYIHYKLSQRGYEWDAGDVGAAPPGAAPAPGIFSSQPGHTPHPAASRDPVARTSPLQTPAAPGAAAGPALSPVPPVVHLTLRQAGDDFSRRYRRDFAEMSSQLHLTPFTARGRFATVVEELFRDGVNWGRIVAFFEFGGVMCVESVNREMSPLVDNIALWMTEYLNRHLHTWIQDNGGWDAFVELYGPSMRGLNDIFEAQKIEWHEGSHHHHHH
# [7] = molecular target: T5, human Mcl-1 a.a. 172-327 with …; experiment: as above
# [8] = molecular target: T3, human Bcl-w a.a. 1-182 with C-terminal …; experiment: ratio of the KD of the next tightest BCL2 protein to the KD of the target, BLI
# [9] = molecular target: T5, human Mcl-1 a.a. 172-327 with …; experiment: BLI
# [10] = molecular target: T2, human Bfl-1 a.a. 1-153 (C4S) with …; experiment: BLI, biotinylated target on streptavidin sensor
# [11] = molecular target: T6, human Bcl-XL a.a. 1-205 with C-terminal …; experiment: BLI, biotinylated target on streptavidin sensor
# [12] = molecular target: T3, human Bcl-w a.a. 1-182 with C-terminal …; experiment: BLI, biotinylated target on streptavidin sensor
# [13] = molecular target: T1, Epstein-Barr virus BHRF1 a.a. 1-161 …; experiment: BLI, biotinylated target on streptavidin sensor
# [14] = molecular target: T4, human Bcl-B a.a. 11-175 with C-terminal …; experiment: BLI, biotinylated target on streptavidin sensor
# [15] = molecular target: T7, human Bcl-2 a.a. 1-207 with C-terminal …; experiment: BLI, biotinylated target on streptavidin sensor
# [16] = molecular target: T5, human Mcl-1 a.a. 172-327 with …; experiment: BLI, biotinylated target on streptavidin sensor
# [17] = molecular target: T2, human Bfl-1 a.a. 1-153 (C4S) with …; experiment: yeast surface display titration (apparent KD)
# [18] = molecular target: T6, human Bcl-XL a.a. 1-205 with C-terminal …; experiment: yeast surface display titration (apparent KD)
# [19] = molecular target: T3, human Bcl-w a.a. 1-182 with C-terminal …; experiment: yeast surface display titration (apparent KD)
# [20] = molecular target: T1, Epstein-Barr virus BHRF1 a.a. 1-161 …; experiment: yeast surface display titration (apparent KD)
# [21] = molecular target: T7, human Bcl-2 a.a. 1-207 with C-terminal …; experiment: yeast surface display titration (apparent KD)
# [22] = molecular target: T5, human Mcl-1 a.a. 172-327 with …; experiment: yeast surface display titration (apparent KD)
# [23] = molecular target: T2, human Bfl-1 a.a. 1-153 (C4S) with …; experiment: yeast surface display titration; apparent binding constant (mean ± SE, n = 3-6)
# [24] = molecular target: T6, human Bcl-XL a.a. 1-205 with C-terminal …; experiment: as above
# [25] = molecular target: T3, human Bcl-w a.a. 1-182 with C-terminal …; experiment: as above
# [26] = molecular target: T7, human Bcl-2 a.a. 1-207 with C-terminal …; experiment: as above
# [27] = molecular target: T5, human Mcl-1 a.a. 172-327 with …; experiment: as above
# [28] = molecular target: Mcl-1 in human cancer cell lines (HeLa, colon cancer lines) (human, UniProt Q07820 1-350); experiment: cell-based or functional assay
# [29] = molecular target: T5, human Mcl-1 a.a. 172-327 with …; experiment: ratio of the KD of the next tightest BCL2 protein to the KD of the target, BLI
# [30] = molecular target: T2, human Bfl-1 a.a. 1-153 (C4S) with …; experiment: BLI at a single analyte concentration (50 nM, 600 s association, then buffer); biotinylated BCL2 protein on a streptavidin sensor
# [31] = molecular target: T6, human Bcl-XL a.a. 1-205 with C-terminal …; experiment: as above
# [32] = molecular target: T3, human Bcl-w a.a. 1-182 with C-terminal …; experiment: as above
# [33] = molecular target: T4, human Bcl-B a.a. 11-175 with C-terminal …; experiment: as above
# [34] = molecular target: T7, human Bcl-2 a.a. 1-207 with C-terminal …; experiment: as above
# [35] = molecular target: T5, human Mcl-1 a.a. 172-327 with …; experiment: as above
# Mcl-1 in human cancer cell lines (HeLa, colon cancer lines), sequence (Q07820 whole entry): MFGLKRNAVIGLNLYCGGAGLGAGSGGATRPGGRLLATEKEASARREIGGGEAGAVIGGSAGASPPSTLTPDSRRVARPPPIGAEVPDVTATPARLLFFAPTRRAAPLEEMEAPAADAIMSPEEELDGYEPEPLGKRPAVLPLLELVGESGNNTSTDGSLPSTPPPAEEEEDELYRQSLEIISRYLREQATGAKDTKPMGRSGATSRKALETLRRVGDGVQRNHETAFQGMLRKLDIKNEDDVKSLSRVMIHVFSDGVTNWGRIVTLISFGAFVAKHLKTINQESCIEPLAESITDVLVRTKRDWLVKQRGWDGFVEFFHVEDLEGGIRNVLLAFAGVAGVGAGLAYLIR
binder,measurement,setting,value
E48R (designed binder) designed protein: ADWKKVLDKAKDIAENRVREIKQKLEEFYKKAMKLDLTQEMRRKLMLRWIAAMLMAIGDIFNAIEQAKQEADKLKKAGQVNSQLLDELKRRLEELKEEASRKCHDYGREFQLKLEY,[..] ΔΔG BHRF1 - ΔΔG Mcl-1,[1],-3.19 kJ/mol
W-CDP03 (designed binder) DPKKVFDEAKDRAENNVRRLKQKLEELYKEARKKDLTQEEREKLKEKYKTAMAAAALAAIGDAFNALLKARKLHKNGQVNEQQLEELARRLQELAKEAFQKAKDYANEFEYKLEY,Kd,[2],0.4 µM
same,Kd,[3],0.00743 µM
same,apparent Kd (pooled screen),[4],8 nM
same,Kd,[5],0.4 µM
same,Kd,[6],0.0188 µM
same,Kd,[7],55.3 nM
same,Specificity,[8],0.9 fold
BINDI N62S (designed binder) ADPKKVLDKAKDQAENRVRELKQKLEELYKEARKLDLTQEMRRKLELRYIAAMLMAIGDIYSAIRQAKQEADKLKKAGLVNSQQLDELKRRLEELKEEASRKARDYGREFQLKLEY,fold decrease of affinity relative to BINDI,[9],6 fold
same,Kd,[10],4 µM
same,Kd,[11],8 µM
same,Kd,[12],4.6 µM
same,Kd,[13],0.16 nM
same,Kd,[14],50 µM
same,Kd,[15],30 µM
same,Kd,[16],230 nM
BbpD04.2 (designed binder) ADWKKVLDKAKDIAENRVRELKQKLEEFYKEAMKLDLTQEMRRKLMLRWIAAMLMAIGDIFNAIRQAKQEADKLKKAGLVNSQQLDELKRRLEELKEEASRKCRDYGREFQLKLEY,Kd,[17],70 nM
same,Kd,[18],31 nM
same,Kd,[19],40 nM
same,Kd,[20],0.6 nM
same,Kd,[21],33 nM
same,Kd,[22],26 nM
BbpD04.2 C103V (designed binder) designed protein: ADWKKVLDKAKDIAENRVRELKQKLEEFYKEAMKLDLTQEMRRKLMLRWIAAMLMAIGDIFNAIRQAKQEADKLKKAGLVNSQQLDELKRRLEELKEEASRKVRDYGREFQLKLEY,Kd,[23],19 nM
same,Kd,[24],20 nM
same,Kd,[25],9.6 nM
same,Kd,[26],12.6 nM
same,Kd,[27],2.3 nM
"MINDI (Mcl-1-inhibiting design acting intracellularly) (designed binder, also called M-CDP04; αMCL1) ADPKKVLDKAKDQAENRVRELKQVLEELYKEARKLDLTQEMRKKLIERYAAAIIRAIGDINNAIYQAKQEAEKLKKAGLVNSQQLDELLRRLDELQKEASRKANEYGREFELKLEY",Kd,[2],30 µM
same,Kd,[3],400 µM
same,Kd,[4],200 µM
same,Kd,[5],40 µM
same,Kd,[6],14.2 µM
same,Kd,[7],0.15 nM
same,decrease of the EC50 of A-1331852 in colon cancer lines on expression of αMCL1,[28],4.6 fold
same,Specificity,[29],93000 fold
M-CDP03 (designed binder) ADPKKVLDKAKDQAENRVRELKQDLERLYKEARKLDLTQEMRRKLQEKAAAAMIRAIGDINNAIYQALQEADKLKKAGLVNSQQLDELKRRLEELQKEASRKAQAYGEEFMLKLEY,binding result,[30],no binding (tested: 50 nM)
same,binding result,[31],no binding (tested: 50 nM)
same,binding result,[32],no binding (tested: 50 nM)
same,binding result,[33],no binding (tested: 50 nM)
same,binding result,[34],no binding (tested: 50 nM)
same,binding result,[35],binds

# — patent US20160376333A1 (University of Washington, published 2016)
